The target in series [1] is T1, StXPB;StBax1ΔC (Sulfurisphaera tokodaii;Sulfurisphaera …, UniProt Q970I2;Q970I1 2-439;2-373, |).
T1 sequence 1: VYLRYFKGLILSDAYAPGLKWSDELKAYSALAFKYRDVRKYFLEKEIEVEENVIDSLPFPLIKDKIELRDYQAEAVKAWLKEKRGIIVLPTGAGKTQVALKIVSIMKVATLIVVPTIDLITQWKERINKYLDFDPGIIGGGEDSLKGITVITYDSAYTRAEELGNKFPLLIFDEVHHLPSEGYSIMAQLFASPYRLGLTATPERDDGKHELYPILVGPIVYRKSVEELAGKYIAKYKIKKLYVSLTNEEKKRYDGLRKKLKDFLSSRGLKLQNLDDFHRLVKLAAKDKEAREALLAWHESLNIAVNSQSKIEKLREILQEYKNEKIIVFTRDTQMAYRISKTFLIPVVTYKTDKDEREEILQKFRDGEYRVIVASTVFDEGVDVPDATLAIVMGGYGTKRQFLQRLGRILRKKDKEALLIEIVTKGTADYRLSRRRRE
T1 sequence 2: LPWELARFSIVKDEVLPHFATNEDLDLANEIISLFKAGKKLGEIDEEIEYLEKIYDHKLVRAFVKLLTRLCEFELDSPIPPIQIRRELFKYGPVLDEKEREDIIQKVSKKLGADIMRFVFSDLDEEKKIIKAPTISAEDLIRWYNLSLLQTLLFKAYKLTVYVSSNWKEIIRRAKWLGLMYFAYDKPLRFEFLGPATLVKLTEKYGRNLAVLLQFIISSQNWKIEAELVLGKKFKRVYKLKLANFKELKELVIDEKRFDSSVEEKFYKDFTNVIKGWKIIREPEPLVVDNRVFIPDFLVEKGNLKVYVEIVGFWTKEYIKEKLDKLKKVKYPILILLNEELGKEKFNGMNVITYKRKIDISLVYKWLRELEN
Put plainly: crystal structure 3.55 Å; 10 mM MgCl2, MES pH 5.3, MPD; ATP-free; EMSA: 25 mM Tris-Cl pH 7.5, 100 mM NaCl, 5% glycerol, 1 mM DTT, room temperature 40 min; 0.8 uM forked DNA or 0.3 uM bubble DNA; 4% TBE native gel, ethidium bromide. The following applies: protein: recombinant;recombinant; tags: N-terminal His8 (PreScission; removed);none stated (pET15b; copurified with His8-XPB); copies: 1;1; 24 bp with 6 nt unpaired region; 6 bp short arm unwound in crystal.

Series [2] concerns the target T1, StXPB;StBax1ΔC. Put plainly: EMSA; EMSA: 25 mM Tris-Cl pH 7.5, 100 mM NaCl, 5% glycerol, 1 mM DTT, room temperature 40 min; 0.8 uM forked DNA or 0.3 uM bubble DNA; 4% TBE native gel, ethidium bromide. To be noted: protein: recombinant;recombinant; tags: N-terminal His8 (PreScission; removed);none stated (pET15b; copurified with His8-XPB); copies: 1;1; fork: 22 bp duplex, 10 nt arms.

The target in another series is T2, StXPB;StBax1 (Sulfurisphaera tokodaii;Sulfurisphaera …, UniProt Q970I2;Q970I1 2-439;1-481, |).
T2 sequence 1: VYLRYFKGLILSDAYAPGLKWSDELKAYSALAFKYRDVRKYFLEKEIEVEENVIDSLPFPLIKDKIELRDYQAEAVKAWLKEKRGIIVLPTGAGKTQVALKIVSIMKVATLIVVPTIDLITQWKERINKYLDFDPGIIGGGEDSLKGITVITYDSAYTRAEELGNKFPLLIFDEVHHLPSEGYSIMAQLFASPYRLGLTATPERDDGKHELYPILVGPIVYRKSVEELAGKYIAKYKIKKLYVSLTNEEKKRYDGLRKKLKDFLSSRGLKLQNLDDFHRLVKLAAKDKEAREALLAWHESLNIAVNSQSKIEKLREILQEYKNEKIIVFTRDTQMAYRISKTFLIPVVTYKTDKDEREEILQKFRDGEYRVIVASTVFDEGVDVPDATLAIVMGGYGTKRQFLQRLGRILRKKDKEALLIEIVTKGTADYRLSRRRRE
T2 sequence 2: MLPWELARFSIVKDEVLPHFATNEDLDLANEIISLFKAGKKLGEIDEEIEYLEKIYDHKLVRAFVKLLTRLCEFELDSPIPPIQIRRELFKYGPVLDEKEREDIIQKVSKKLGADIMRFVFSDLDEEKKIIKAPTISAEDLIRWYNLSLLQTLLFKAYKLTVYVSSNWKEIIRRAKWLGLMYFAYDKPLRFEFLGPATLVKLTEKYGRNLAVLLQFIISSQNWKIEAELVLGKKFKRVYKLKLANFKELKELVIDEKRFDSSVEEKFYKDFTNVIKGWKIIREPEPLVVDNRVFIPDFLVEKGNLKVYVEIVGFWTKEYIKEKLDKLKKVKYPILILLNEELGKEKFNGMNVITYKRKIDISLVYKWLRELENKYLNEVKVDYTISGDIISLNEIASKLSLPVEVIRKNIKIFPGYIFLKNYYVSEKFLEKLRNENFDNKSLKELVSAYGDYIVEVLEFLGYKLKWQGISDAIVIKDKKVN
The description is as above. To be noted: protein: recombinant;recombinant; tags: N-terminal His8 (PreScission; removed);; copies: 1;1; fork: 22 bp duplex, 10 nt arms.

The target of series [3] is human XPB;human p52;human p8;human XPA (human;human;human;human, UniProt P19447;Q92759;Q6ZYL4;P23025 1-782;1-462;1-71;1-273, |||). Put plainly: EMSA; stable complex; EMSA: 25 mM Tris-Cl pH 7.5, 100 mM NaCl, 5% glycerol, 1 mM DTT, room temperature 40 min; 0.8 uM forked DNA or 0.3 uM bubble DNA; 4% TBE native gel, ethidium bromide. The following applies: protein: recombinant;recombinant;recombinant;recombinant; tags: N-terminal His6 (PreScission; removed);;;N-terminal His6-SUMO (removed); copies: 1;1;1;1; fork: 22 bp duplex, 10 nt arms.

The target in another series is T3, StXPB F278A (Sulfurisphaera tokodaii, UniProt Q970I2 2-439, F278A).
T3 sequence: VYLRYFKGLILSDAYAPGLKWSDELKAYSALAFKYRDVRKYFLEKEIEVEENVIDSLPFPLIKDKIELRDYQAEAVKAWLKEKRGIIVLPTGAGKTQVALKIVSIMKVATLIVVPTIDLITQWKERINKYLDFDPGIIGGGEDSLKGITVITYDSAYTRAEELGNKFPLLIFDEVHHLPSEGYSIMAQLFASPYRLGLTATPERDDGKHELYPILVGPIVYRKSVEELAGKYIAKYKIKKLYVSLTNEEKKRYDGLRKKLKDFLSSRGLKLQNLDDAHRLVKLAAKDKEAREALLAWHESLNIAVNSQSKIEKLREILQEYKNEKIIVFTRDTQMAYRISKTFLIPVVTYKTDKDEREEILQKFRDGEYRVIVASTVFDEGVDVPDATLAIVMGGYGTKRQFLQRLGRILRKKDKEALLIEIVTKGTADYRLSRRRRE
Put plainly: EMSA; no noticeable effect versus WT; EMSA: 25 mM Tris-Cl pH 7.5, 100 mM NaCl, 5% glycerol, 1 mM DTT, room temperature 40 min; 0.8 uM forked DNA or 0.3 uM bubble DNA; 4% TBE native gel, ethidium bromide. The following applies: protein: recombinant; tags: N-terminal His8 (removed); 32 nt strands, blunt, internal 5 nt T:T mismatch bubble.

human XPB;human p52;human p8;human XPA, sequence (P19447 whole entry, chain 1 of 4): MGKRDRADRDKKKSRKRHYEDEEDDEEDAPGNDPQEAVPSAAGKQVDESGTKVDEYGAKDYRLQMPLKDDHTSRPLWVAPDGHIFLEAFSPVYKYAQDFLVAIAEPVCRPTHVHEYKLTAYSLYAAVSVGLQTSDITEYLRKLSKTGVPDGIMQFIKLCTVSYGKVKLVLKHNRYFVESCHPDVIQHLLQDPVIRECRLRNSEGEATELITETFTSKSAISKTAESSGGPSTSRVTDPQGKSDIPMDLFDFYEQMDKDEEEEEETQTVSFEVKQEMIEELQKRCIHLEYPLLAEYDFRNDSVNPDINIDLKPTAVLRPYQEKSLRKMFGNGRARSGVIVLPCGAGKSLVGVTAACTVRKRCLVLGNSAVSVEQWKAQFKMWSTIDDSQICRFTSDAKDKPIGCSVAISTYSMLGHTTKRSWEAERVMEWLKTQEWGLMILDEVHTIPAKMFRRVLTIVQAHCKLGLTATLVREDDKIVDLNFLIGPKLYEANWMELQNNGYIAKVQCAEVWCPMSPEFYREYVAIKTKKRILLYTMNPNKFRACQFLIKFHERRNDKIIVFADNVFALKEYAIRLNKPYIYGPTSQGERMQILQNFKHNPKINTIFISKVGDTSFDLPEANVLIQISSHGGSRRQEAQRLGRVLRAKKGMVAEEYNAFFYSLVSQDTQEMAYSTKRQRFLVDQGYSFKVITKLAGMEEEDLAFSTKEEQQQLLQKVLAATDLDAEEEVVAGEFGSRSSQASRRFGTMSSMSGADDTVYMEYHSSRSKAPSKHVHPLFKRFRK
human XPB;human p52;human p8;human XPA, sequence (Q92759 whole entry, chain 2 of 4): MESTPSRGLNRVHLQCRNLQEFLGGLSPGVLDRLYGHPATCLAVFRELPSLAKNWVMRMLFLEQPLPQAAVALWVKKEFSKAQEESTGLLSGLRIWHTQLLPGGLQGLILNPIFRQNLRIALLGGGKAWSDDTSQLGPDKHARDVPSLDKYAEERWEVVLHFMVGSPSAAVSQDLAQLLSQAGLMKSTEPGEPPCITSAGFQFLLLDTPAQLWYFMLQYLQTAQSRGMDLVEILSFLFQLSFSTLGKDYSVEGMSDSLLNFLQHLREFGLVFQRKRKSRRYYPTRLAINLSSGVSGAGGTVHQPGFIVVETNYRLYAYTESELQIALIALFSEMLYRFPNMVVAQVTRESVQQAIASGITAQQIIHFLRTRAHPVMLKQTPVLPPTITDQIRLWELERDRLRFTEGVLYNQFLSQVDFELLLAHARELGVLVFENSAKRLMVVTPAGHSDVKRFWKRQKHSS
human XPB;human p52;human p8;human XPA, sequence (Q6ZYL4 whole entry, chain 3 of 4): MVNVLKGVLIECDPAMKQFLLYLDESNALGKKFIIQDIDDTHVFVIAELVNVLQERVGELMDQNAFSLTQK
human XPB;human p52;human p8;human XPA, sequence (P23025 whole entry, chain 4 of 4): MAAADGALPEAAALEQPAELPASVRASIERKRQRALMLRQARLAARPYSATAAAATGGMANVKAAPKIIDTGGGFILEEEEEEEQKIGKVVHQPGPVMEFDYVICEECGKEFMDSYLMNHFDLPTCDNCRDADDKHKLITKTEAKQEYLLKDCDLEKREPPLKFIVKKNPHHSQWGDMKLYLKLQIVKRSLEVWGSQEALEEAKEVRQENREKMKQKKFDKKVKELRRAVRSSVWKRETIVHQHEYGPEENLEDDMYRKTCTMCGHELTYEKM

B1: bubble-6 DNA (crystal) (dsDNA)
DNA 1: TTGACTCAACATCCTTTGCTACAA
DNA 2: ATTGTAGGTTTCCATGTTGAGTCA
On to B1, for which, in the series with StXPB;StBax1ΔC [1], the binding result is reported as “binds”.

B2: forked DNA (dsDNA)
DNA 1: TAGTCACAGCTGATTGCGCTCTGCTCCATAGT
DNA 2: TGATACTTCGAGAGCGCAATCAGCTGTGACTA
In the case of B2, the binding result (in the series with StXPB;StBax1ΔC [2]; in the series with StXPB;StBax1; in series [3]) was “binds” throughout.

B3: bubble-5 DNA (dsDNA)
DNA 1: TAGTCACAGCTGATTTTTCTCTGCTCCATAGT
DNA 2: ACTATGGAGCAGAGTTTTTTCAGCTGTGACTA
Consider B3, for which the binding result in the series with StXPB F278A is “binds”.

Source of the values: publication PMC7672443, “Structural basis of the XPB helicase–Bax1 nuclease complex interacting with the repair bubble DNA” (Nucleic Acids Research, 2020).
